For series [1], the target named is T1, NGF (nerve growth factor) (human, UniProt P01138 P01138:122-241). Nature of the series: cell_activity; neurite outgrowth, NGF 0.38 nM; SPR binding; TF-1 IC50 1.0 nM. The settings on record: tags: amine-coupled to CM5 chip in SPR; soluble in cell assays; chain copies: 2. The procedure: (§1) The neurite outgrowth inhibitory activity of the aptamer obtained in Example 1 was evaluated by using Neuroscreen-1 cell, which is a subclone of PC-12 cells.
(§2) The cells (2500 cells per well) were cultured for one day in an RPMI-1640 medium containing 2.5% horse serum and 1.25% fetal bovine serum in a 96 well flat-bottom plate coated with collagen type IV. […] Two days later, the cytoplasm and nuclei were stained using Cellomics Neurite Outgrowth Kit (manufactured by Thermo Scientific), and neurite length per cell was measured by Cellomics ArrayScan VTI (manufactured by Thermo Scientific). With the neurite length per cell obtained by the addition of NGF alone as inhibitory activity 0%, and that of the cell obtained by NGF free culture for 2 days as inhibitory activity 100%, the inhibitory activity of the aptamer was calculated from the neurite length per cell obtained by culturing with the addition of NGF and the aptamer in mixture. When the inhibitory activity was 0% or below, ‘0%’ is indicated.
(In SPR one partner is held on a chip, and binding of the other changes the refractive index at the surface.)

In series [2] the target is T1, NGF (nerve growth factor). The experiment in a line: cell_activity; neurite outgrowth, NGF 0.38 nM; SPR binding; TF-1 IC50 0.154 nM. The note with it: tags: amine-coupled to CM5 chip in SPR; soluble in cell assays; chain copies: 2. As for the experimental part: as §1, §2
Series [3] has as its target T1, NGF (nerve growth factor). The experiment in a line: cell_activity; neurite outgrowth, NGF 1.1 nM; SPR binding; TF-1 IC50 1.4 nM. The note with it: tags: amine-coupled to CM5 chip in SPR; soluble in cell assays; chain copies: 2. As for the experimental part:
as §1, §2

The target of series [4] is T1, NGF (nerve growth factor). Nature of the series: cell_activity; neurite outgrowth, NGF 1.1 nM; SPR binding; TF-1 IC50 >30 nM. The note with it: tags: amine-coupled to CM5 chip in SPR; soluble in cell assays; chain copies: 2. As for the experimental part:
as §1, §2

The target in series [5] is T1, NGF (nerve growth factor). Nature of the series: cell_activity; neurite outgrowth, NGF 1.1 nM; TF-1 IC50 <1.0 nM. The note with it: tags: human NGF; chain copies: 2. The procedure:
as §1, §2

The target in series [6] is T1, NGF (nerve growth factor). Nature of the series: cell_activity; neurite outgrowth, NGF 0.38 nM; TF-1 IC50 0.164 nM. The settings on record: tags: human NGF; chain copies: 2. As for the experimental part: as §1, §2
The target in series [7] is T1, NGF (nerve growth factor). Nature of the series: cell_activity; neurite outgrowth, NGF 0.38 nM; TF-1 IC50 0.130 nM. The note with it: tags: human NGF; chain copies: 2. As for the experimental part: as §1, §2
Series [8] addresses T1, NGF (nerve growth factor). Nature of the series: cell_activity; neurite outgrowth, NGF 0.38 nM; TF-1 IC50 0.069 nM. The settings on record: tags: human NGF; chain copies: 2. The procedure: as §1, §2
Series [9] addresses T1, NGF (nerve growth factor). Nature of the series: cell_activity; neurite outgrowth, NGF 0.38 nM; TF-1 IC50 0.074 nM. The note with it: tags: human NGF; chain copies: 2. As for the experimental part:
as §1, §2

Series [10] deals with T1, NGF (nerve growth factor). Nature of the series: cell_activity; neurite outgrowth, NGF 0.38 nM; TF-1 IC50 0.146 nM. The settings on record: tags: human NGF; chain copies: 2. As for the experimental part:
as §1, §2

The target of series [11] is T1, NGF (nerve growth factor). The experiment in a line: cell_activity; neurite outgrowth, NGF 0.38 nM; TF-1 IC50 0.100 nM. The note with it: tags: human NGF; chain copies: 2. The procedure: as §1, §2
For series [12], the target named is T1, NGF (nerve growth factor). The experiment in a line: cell_activity; neurite outgrowth, NGF 0.38 nM; TF-1 IC50 0.055 nM. The note with it: tags: human NGF; chain copies: 2. The procedure:
as §1, §2

Series [13] concerns the target T1, NGF (nerve growth factor). The experiment in a line: cell_activity; neurite outgrowth, NGF 0.38 nM; TF-1 IC50 0.107 nM. The note with it: tags: human NGF; chain copies: 2. As for the experimental part:
as §1, §2

Series [14] addresses T1, NGF (nerve growth factor). Nature of the series: cell_activity; neurite outgrowth, NGF 0.38 nM; TF-1 IC50 0.239 nM. The note with it: tags: human NGF; chain copies: 2. As for the experimental part: as §1, §2
In series [15] the target is T1, NGF (nerve growth factor). Nature of the series: cell_activity; neurite outgrowth, NGF 0.38 nM; TF-1 IC50 0.193 nM. The note with it: tags: human NGF; chain copies: 2. The procedure:
as §1, §2

The IC50 is the midpoint of a concentration-inhibition curve. Higher therefore signals lower potency.

T1 sequence (P01138 122-241, one chain of several): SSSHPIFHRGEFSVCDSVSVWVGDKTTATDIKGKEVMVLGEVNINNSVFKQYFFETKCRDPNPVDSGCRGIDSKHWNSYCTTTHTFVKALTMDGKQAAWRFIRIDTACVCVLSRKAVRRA

In series [1], GGGAGACUCGCCAGAGUUGAAAGAAACCCAAAUAGUGUGCGCAC (ssRNA, 2'-F at all pyrimidines) [aptamer ID 29] came in with an IC50 of under 0.3 nM. The molecule GGGAGACUCGCCAGAGUUGAAAGAAACCCAAAUAGUGUGCGCAC (ssRNA, 2'-F pyrimidines; 2'-OMe purines except 2'-OH at 3,19,20; 5' idT and 3' idT) [aptamer ID 29(1)] came in with an IC50 in series [2] of 0.058 nM. That is a picomolar value. In turn, GGGAGACUCGCAGAGUUGAAAGAAACCCAAAUAAGUGUGCGCAC (ssRNA, 2'-F at all pyrimidines) [aptamer ID 28] had an IC50 in [3] of under 1 nM.

B1: aptamer ID 43 (ssRNA)
RNA: GGGAGAACUUCGACCAGAAGUCGAUAACGAACAAAACUCCCAAAUAUGUGCGCAUACA
modifications: 2'-F at all pyrimidines
In the case of B1, the IC50 in series [4] was under 3 nM. In series [5], GGGAGACUCGCCAGAGUUGAAAGAAACCCAAAUAAGUGUGCGCAC (ssRNA, 2'-F all pyrimidines) [aptamer ID 26] had an IC50 of under 1 nM.

B2: aptamer ID 26(35) (ssRNA)
RNA: GGGAGACUCGCCAGAGUUGAAAGAAACCCAAAUAAGUGUGCGCAC
modifications: as 26(19) (5' and 3' idT; 2'-F pyrimidines; 2'-OMe purines except ribo g3,g19,a20,a26) but c45 is 2'-OMe
In the case of B2, the IC50 in series [6] stood at 0.166 nM.

B3: aptamer ID 26(57) (mixed)
RNA: B2 RNA
modifications: 5' and 3' idT; 2'-OMe purines except ribo g3,g19,a20,a26; 2'-F c27,c28,u39,c43; dC29,dC41; other pyrimidines 2'-OMe
As to B3, the half-inhibitory concentration (IC50) in series [7] was found to be 0.213 nM.

B4: aptamer ID 26(48) (ssRNA)
RNA: B2 RNA
modifications: 5' and 3' idT; 2'-OMe purines except ribo g3,g19,a20,a26; 2'-OMe c7,c11,c12,u17,u18,u33,u37,c45; other pyrimidines 2'-F
As to B4, the IC50 in series [8] amounted to 0.053 nM.

B5: aptamer ID 26(47) (ssRNA)
RNA: B2 RNA
modifications: 5' and 3' idT; 2'-OMe purines except ribo g3,g19,a20,a26; 2'-OMe c7,c11,c12,u17,u33,u37,c45; other pyrimidines 2'-F
In [9], B5 came in with an IC50 of 0.065 nM.

B6: aptamer ID 26(45) (ssRNA)
RNA: B2 RNA
modifications: 5' and 3' idT; 2'-OMe purines except ribo g3,g19,a20,a26; 2'-OMe c7,c9,c11,c12,u17,u33,c45; other pyrimidines 2'-F
On to B6, for which the half-inhibitory concentration (IC50) in series [10] was determined as 0.238 nM.

B7: aptamer ID 26(46) (ssRNA)
RNA: B2 RNA
modifications: 5' and 3' idT; 2'-OMe purines except ribo g3,g19,a20,a26; 2'-OMe c7,u8,c11,c12,u17,u33,c45; other pyrimidines 2'-F
In turn, B7 returned a half-inhibitory concentration (IC50) in [11] of 0.097 nM.

B8: aptamer ID 26(60) (ssRNA)
RNA: B2 RNA
modifications: 5' and 3' idT; 2'-OMe purines except ribo g3,g19,a20 and 2'-F a26; 2'-F c27,c28,c29,u39,c41,c43; other pyrimidines 2'-OMe
As for B8, in series [12], it took 0.105 nM to reach half-maximal inhibition (IC50).

B9: aptamer ID 26(58) (mixed)
RNA: B2 RNA
modifications: 5' and 3' idT; 2'-OMe purines except ribo g3,g19,a20,a26; 2'-F c27,c28,u39,c41; dC29,dC43; other pyrimidines 2'-OMe
On to B9, for which the IC50 in series [13] amounted to 0.143 nM. This counts as sub-nanomolar.

B10: aptamer ID 26(34) (ssRNA)
RNA: B2 RNA
modifications: as 26(19) (5' and 3' idT; 2'-F pyrimidines; 2'-OMe purines except ribo g3,g19,a20,a26) but u33 is 2'-OMe
The molecule B10 gave an IC50 in series [14] of 0.247 nM.

B11: aptamer ID 26(32) (ssRNA)
RNA: B2 RNA
modifications: as 26(19) (5' and 3' idT; 2'-F pyrimidines; 2'-OMe purines except ribo g3,g19,a20,a26) but c11 is 2'-OMe
In turn, B11 yielded a 50% inhibitory concentration (IC50) in series [15] of 0.22 nM.
